Biological target: T1, purified human MMP-9 (human, UniProt P14780 20-707)
T1 construct: human matrix metalloproteinase 9; May be the same protein as MMP-9-6x His; Methods are in the supplementary file; source: purified
Experiment: BLI; ForteBio Octet; who was immobilised and buffer not told in the text shown; three biological replicates
Details: both partners purified

T1 sequence (P14780 20-707): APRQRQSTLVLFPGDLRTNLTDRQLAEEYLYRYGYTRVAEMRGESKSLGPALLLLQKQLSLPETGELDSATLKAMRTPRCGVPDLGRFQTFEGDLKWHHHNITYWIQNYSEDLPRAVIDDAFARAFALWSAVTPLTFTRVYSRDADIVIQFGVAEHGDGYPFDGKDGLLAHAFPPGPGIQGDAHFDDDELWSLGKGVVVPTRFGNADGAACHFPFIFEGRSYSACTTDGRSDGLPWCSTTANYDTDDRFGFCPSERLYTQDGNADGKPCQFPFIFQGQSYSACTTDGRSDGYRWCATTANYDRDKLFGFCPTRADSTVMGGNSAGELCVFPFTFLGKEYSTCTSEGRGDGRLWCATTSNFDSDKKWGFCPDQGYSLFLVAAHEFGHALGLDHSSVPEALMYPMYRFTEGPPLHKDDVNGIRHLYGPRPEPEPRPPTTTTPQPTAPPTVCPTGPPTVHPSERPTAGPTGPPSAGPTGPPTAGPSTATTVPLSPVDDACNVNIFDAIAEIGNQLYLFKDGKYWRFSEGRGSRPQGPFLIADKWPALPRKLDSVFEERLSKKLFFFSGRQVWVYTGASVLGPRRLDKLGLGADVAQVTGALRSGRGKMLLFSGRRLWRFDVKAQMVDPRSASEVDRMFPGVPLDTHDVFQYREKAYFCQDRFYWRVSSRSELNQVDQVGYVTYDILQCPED

B1: purified human TGM2 (transglutaminase 2) (enzyme, UniProt P21980 1-687, looked up)
chain: MAEELVLERCDLELETNGRDHHTADLCREKLVVRRGQPFWLTLHFEGRNYEASVDSLTFSVVTGPAPSQEAGTKARFPLRDAVEEGDWTATVVDQQDCTLSLQLTTPANAPIGLYRLSLEASTGYQGSSFVLGHFILLFNAWCPADAVYLDSEEERQEYVLTQQGFIYQGSAKFIKNIPWNFGQFEDGILDICLILLDVNPKFLKNAGRDCSRRSSPVYVGRVVSGMVNCNDDQGVLLGRWDNNYGDGVSPMSWIGSVDILRRWKNHGCQRVKYGQCWVFAAVACTVLRCLGIPTRVVTNYNSAHDQNSNLLIEYFRNEFGEIQGDKSEMIWNFHCWVESWMTRPDLQPGYEGWQALDPTPQEKSEGTYCCGPVPVRAIKEGDLSTKYDAPFVFAEVNADVVDWIQQDDGSVHKSINRSLIVGLKISTKSVGRDEREDITHTYKYPEGSSEEREAFTRANHLNKLAEKEETGMAMRIRVGQSMNMGSDFDVFAHITNNTAEEYVCRLLLCARTVSYNGILGPECGTKYLLNLNLEPFSEKSVPLCILYEKYRDCLTESNLIKVRALLVEPVINSYLLAERDLYLENPEIKIRILGEPKQKRKLVAEVSLQNPLPVALEGCTFTVEGAGLTEEQKTVEIPDPVEAGEEVKVRMDLLPLHMGLHKLVVNFESDKLKAVKGFRNVIIGPA
notes: human transglutaminase 2; the purified protein's band is called full-length TGM2 (100 kDa) in the cleavage assay; The printed 100 kDa for full-length TGM2 is larger than the native protein; also called recombinant TGM2; source: purified
Kd: 1.98 µM
